US20260085338A1

Assays:
[1] = target: phi15 RNA polymerase (Pseudomonas phage phi15); experiment: cell-based or functional assay
[2] = target: P. putida RNA polymerase (Pseudomonas putida); experiment: cell-based or functional assay

Substance | leaky expression (msfGFP; P. putida, 5 mM Rha) (nM 5(6)-FAM/OD600) [1] | fold induction (FITC-A of +RNAP,-lys against -RNAP,+lys), P. aeruginosa [1] [fold] | fold induction (FITC-A of +RNAP,-lys against -RNAP,+lys), P. putida [1] [fold] | induced (%) cells with FITC-A above 10^4, P. aeruginosa, -RNAP +lys [1] [%] | induced (%) cells with FITC-A above 10^4, P. putida, -RNAP +lys [1] [%] | median FITC-A, flow cytometry, P. aeruginosa, -RNAP +lys (5 mM Rha) [1] [FITC-A] | median FITC-A, flow cytometry, P. putida, -RNAP +lys (5 mM Rha) [1] [FITC-A] | also measured
Pf-10 lysozyme (enzyme) | – | – | – | – | – | – | – | decrease in msfGFP output (leakiness of the phi15 RNAP; P. putida, 4 mM Rha) [1]: 84%
Phi15 GP16 RNA polymerase inhibitor | – | – | – | – | – | – | – | cell growth (OD600) of P. putida after induction with 10 mM Rha [2]: 1.4 OD600
phi15 lysozyme (AA1-9>Pf-10 (AA1-10)) (enzyme) | 23 | – | – | – | – | – | – | –
phi15 lysozyme (G3R) (enzyme) | 57 | – | – | – | – | – | – | –
phi15 lysozyme (G3RQ) (enzyme) | 11 | 130 | 9.64 | 5.94 | 66.7 | 527 | 12700 | leaky expression from the phi15 RNAP (msfGFP; P. aeruginosa, 5 mM rhamnose) (5(6)-FAM/OD600) [1]: 29; leaky expression from the phi15 RNAP against the wild-type phi15 lysozyme (P. aeruginosa, 5 mM rhamnose) [1]: 13 fold lower
phi15 lysozyme (wild-type) (enzyme) | 122 | 7.36 | 4.1 | 77.5 | 80 | 33400 | 17800 | leaky fluorescence with lysozyme induced (P. putida, 4 mM Rha) (nM 5(6)-FAM/OD600) [1]: 77
